Experimental data from US20250339531A1, “DUX4 POLYPEPTIDES AND NUCLEIC ACIDS FOR TREATING INFLAMMATORY AND AUTOIMMUNE CONDITIONS” (Fred Hutchinson Cancer Center, priority 2021, published 2025).

B1: P20020 (protein, UniProt P20020 1-1220, looked up)
chain: MGDMANNSVAYSGVKNSLKEANHDGDFGITLAELRALMELRSTDALRKIQESYGDVYGICTKLKTSPNEGLSGNPADLERREAVFGKNFIPPKKPKTFLQLVWEALQDVTLIILEIAAIVSLGLSFYQPPEGDNALCGEVSVGEEEGEGETGWIEGAAILLSVVCVVLVTAFNDWSKEKQFRGLQSRIEQEQKFTVIRGGQVIQIPVADITVGDIAQVKYGDLLPADGILIQGNDLKIDESSLTGESDHVKKSLDKDPLLLSGTHVMEGSGRMVVTAVGVNSQTGIIFTLLGAGGEEEEKKDEKKKEKKNKKQDGAIENRNKAKAQDGAAMEMQPLKSEEGGDGDEKDKKKANLPKKEKSVLQGKLTKLAVQIGKAGLLMSAITVIILVLYFVIDTFWVQKRPWLAECTPIYIQYFVKFFIIGVTVLVVAVPEGLPLAVTISLAYSVKKMMKDNNLVRHLDACETMGNATAICSDKTGTLTMNRMTVVQAYINEKHYKKVPEPEAIPPNILSYLVTGISVNCAYTSKILPPEKEGGLPRHVGNKTECALLGLLLDLKRDYQDVRNEIPEEALYKVYTFNSVRKSMSTVLKNSDGSYRIFSKGASEIILKKCFKILSANGEAKVFRPRDRDDIVKTVIEPMASEGLRTICLAFRDFPAGEPEPEWDNENDIVTGLTCIAVVGIEDPVRPEVPDAIKKCQRAGITVRMVTGDNINTARAIATKCGILHPGEDFLCLEGKDFNRRIRNEKGEIEQERIDKIWPKLRVLARSSPTDKHTLVKGIIDSTVSDQRQVVAVTGDGTNDGPALKKADVGFAMGIAGTDVAKEASDIILTDDNFTSIVKAVMWGRNVYDSISKFLQFQLTVNVVAVIVAFTGACITQDSPLKAVQMLWVNLIMDTLASLALATEPPTESLLLRKPYGRNKPLISRTMMKNILGHAFYQLVVVFTLLFAGEKFFDIDSGRNAPLHAPPSEHYTIVFNTFVLMQLFNEINARKIHGERNVFEGIFNNAIFCTIVLGTFVVQIIIVQFGGKPFSCSELSIEQWLWSIFLGMGTLLWGQLISTIPTSRLKFLKEAGHGTQKEEIPEEELAEDVEEIDHAERELRRGQILWFRGLNRIQTQIRVVNAFRSSLYEGLEKPESRSSIHNFMTHPEFRIEDSEPHIPLIDDTDAEDDAPTKRNSSPPPSPNKNNNAVDSGIHLTIEMNKSATSSSPGSPLHSLETSL
modifications: full-length
B2: Q9P2E9 (protein, UniProt Q9P2E9 1-1410, looked up)
chain: MDIYDTQTLGVVVFGGFMVVSAIGIFLVSTFSMKETSYEEALANQRKEMAKTHHQKVEKKKKEKTVEKKGKTKKKEEKPNGKIPDHDPAPNVTVLLREPVRAPAVAVAPTPVQPPIIVAPVATVPAMPQEKLASSPKDKKKKEKKVAKVEPAVSSVVNSIQVLTSKAAILETAPKEVPMVVVPPVGAKGNTPATGTTQGKKAEGTQNQSKKAEGAPNQGRKAEGTPNQGKKTEGTPNQGKKAEGTPNQGKKAEGTPNQGKKAEGAQNQGKKVDTTPNQGKKVEGAPTQGRKAEGAQNQAKKVEGAQNQGKKAEGAQNQGKKGEGAQNQGKKAEGAQNQGKKAEGAQNQGKKAEGAQNQGKKAEGAQNQGKKAEGAQNQGKKAEGAQNQGKKVEGAQNQGKKAEGAQNQGKKAEGAQNQGKKAEGAQNQGKKAEGAQNQGKKAEGAQNQGKKAEGAQNQGKKAEGAQNQGKKVEGAQNQGKKAEGAQNQGKKAEGAQNQGKKAEGAQNQGQKGEGAQNQGKKTEGAQGKKAERSPNQGKKGEGAPIQGKKADSVANQGTKVEGITNQGKKAEGSPSEGKKAEGSPNQGKKADAAANQGKKTESASVQGRNTDVAQSPEAPKQEAPAKKKSGSKKKGEPGPPDADGPLYLPYKTLVSTVGSMVFNEGEAQRLIEILSEKAGIIQDTWHKATQKGDPVAILKRQLEEKEKLLATEQEDAAVAKSKLRELNKEMAAEKAKAAAGEAKVKKQLVAREQEITAVQARMQASYREHVKEVQQLQGKIRTLQEQLENGPNTQLARLQQENSILRDALNQATSQVESKQNAELAKLRQELSKVSKELVEKSEAVRQDEQQRKALEAKAAAFEKQVLQLQASHRESEEALQKRLDEVSRELCHTQSSHASLRADAEKAQEQQQQMAELHSKLQSSEAEVRSKCEELSGLHGQLQEARAENSQLTERIRSIEALLEAGQARDAQDVQASQAEADQQQTRLKELESQVSGLEKEAIELREAVEQQKVKNNDLREKNWKAMEALATAEQACKEKLLSLTQAKEESEKQLCLIEAQTMEALLALLPELSVLAQQNYTEWLQDLKEKGPTLLKHPPAPAEPSSDLASKLREAEETQSTLQAECDQYRSILAETEGMLRDLQKSVEEEEQVWRAKVGAAEEELQKSRVTVKHLEEIVEKLKGELESSDQVREHTSHLEAELEKHMAAASAECQNYAKEVAGLRQLLLESQSQLDAAKSEAQKQSDELALVRQQLSEMKSHVEDGDIAGAPASSPEAPPAEQDPVQLKTQLEWTEAILEDEQTQRQKLTAEFEEAQTSACRLQEELEKLRTAGPLESSETEEASQLKERLEKEKKLTSDLGRAATRLQELLKTTQEQLAREKDTVKKLQEQLEKAEDGSSSKEGTSV
modifications: full-length
B3: P68366 (protein, UniProt P68366 1-448, looked up)
chain: MRECISVHVGQAGVQMGNACWELYCLEHGIQPDGQMPSDKTIGGGDDSFTTFFCETGAGKHVPRAVFVDLEPTVIDEIRNGPYRQLFHPEQLITGKEDAANNYARGHYTIGKEIIDPVLDRIRKLSDQCTGLQGFLVFHSFGGGTGSGFTSLLMERLSVDYGKKSKLEFSIYPAPQVSTAVVEPYNSILTTHTTLEHSDCAFMVDNEAIYDICRRNLDIERPTYTNLNRLISQIVSSITASLRFDGALNVDLTEFQTNLVPYPRIHFPLATYAPVISAEKAYHEQLSVAEITNACFEPANQMVKCDPRHGKYMACCLLYRGDVVPKDVNAAIAAIKTKRSIQFVDWCPTGFKVGINYQPPTVVPGGDLAKVQRAVCMLSNTTAIAEAWARLDHKFDLMYAKRAFVHWYVGEGMEEGEFSEAREDMAALEKDYEEVGIDSYEDEDEGEE
modifications: full-length
B4: Q3SY84 (protein, UniProt Q3SY84 1-523, looked up)
chain: MSRQFTCKSGAAAKGGFSGCSAVLSGGSSSSFRAGSKGLSGGFGSRSLYSLGGVRSLNVASGSGKSGGYGFGRGRASGFAGSMFGSVALGPVCPTVCPPGGIHQVTVNESLLAPLNVELDPEIQKVRAQEREQIKALNNKFASFIDKVRFLEQQNQVLETKWELLQQLDLNNCKNNLEPILEGYISNLRKQLETLSGDRVRLDSELRNVRDVVEDYKKRYEEEINKRTAAENEFVLLKKDVDAAYANKVELQAKVESMDQEIKFFRCLFEAEITQIQSHISDMSVILSMDNNRNLDLDSIIDEVRTQYEEIALKSKAEAEALYQTKFQELQLAAGRHGDDLKNTKNEISELTRLIQRIRSEIENVKKQASNLETAIADAEQRGDNALKDARAKLDELEGALHQAKEELARMLREYQELMSLKLALDMEIATYRKLLESEECRMSGEFPSPVSISIISSTSGGSVYGFRPSMVSGGYVANSSNCISGVCSVRGGEGRSRGSANDYKDTLGKGSSLSAPSKKTSR
modifications: full-length
B5: P04899 (protein, UniProt P04899 1-355, looked up)
chain: MGCTVSAEDKAAAERSKMIDKNLREDGEKAAREVKLLLLGAGESGKSTIVKQMKIIHEDGYSEEECRQYRAVVYSNTIQSIMAIVKAMGNLQIDFADPSRADDARQLFALSCTAEEQGVLPDDLSGVIRRLWADHGVQACFGRSREYQLNDSAAYYLNDLERIAQSDYIPTQQDVLRTRVKTTGIVETHFTFKDLHFKMFDVGGQRSERKKWIHCFEGVTAIIFCVALSAYDLVLAEDEEMNRMHESMKLFDSICNNKWFTDTSIILFLNKKDLFEEKITHSPLTICFPEYTGANKYDEAASYIQSKFEDLNKRKDTKEIYTHFTCATDTKNVQFVFDAVTDVIIKNNLKDCGLF
modifications: full-length
B6: P68104 (protein, UniProt P68104 1-462, looked up)
chain: MGKEKTHINIVVIGHVDSGKSTTTGHLIYKCGGIDKRTIEKFEKEAAEMGKGSFKYAWVLDKLKAERERGITIDISLWKFETSKYYVTIIDAPGHRDFIKNMITGTSQADCAVLIVAAGVGEFEAGISKNGQTREHALLAYTLGVKQLIVGVNKMDSTEPPYSQKRYEEIVKEVSTYIKKIGYNPDTVAFVPISGWNGDNMLEPSANMPWFKGWKVTRKDGNASGTTLLEALDCILPPTRPTDKPLRLPLQDVYKIGGIGTVPVGRVETGVLKPGMVVTFAPVNVTTEVKSVEMHHEALSEALPGDNVGFNVKNVSVKDVRRGNVAGDSKNDPPMEAAGFTAQVIILNHPGQISAGYAPVLDCHTAHIACKFAELKEKIDRRSGKKLEDGPKFLKSGDAAIVDMVPGKPMCVESFSDYPPLGRFAVRDMRQTVAVGVIKAVDKKAAGAGKVTKSAQKAQKAK
modifications: full-length
B7: Q14240 (protein, UniProt Q14240 1-407, looked up)
chain: MSGGSADYNREHGGPEGMDPDGVIESNWNEIVDNFDDMNLKESLLRGIYAYGFEKPSAIQQRAIIPCIKGYDVIAQAQSGTGKTATFAISILQQLEIEFKETQALVLAPTRELAQQIQKVILALGDYMGATCHACIGGTNVRNEMQKLQAEAPHIVVGTPGRVFDMLNRRYLSPKWIKMFVLDEADEMLSRGFKDQIYEIFQKLNTSIQVVLLSATMPTDVLEVTKKFMRDPIRILVKKEELTLEGIKQFYINVEREEWKLDTLCDLYETLTITQAVIFLNTRRKVDWLTEKMHARDFTVSALHGDMDQKERDVIMREFRSGSSRVLITTDLLARGIDVQQVSLVINYDLPTNRENYIHRIGRGGRFGRKGVAINFVTEEDKRILRDIETFYNTTVEEMPMNVADLI
modifications: full-length

System: proteins that co-immunoprecipitated with DUX4-CTD constructs expressed in MB135 myoblasts
Assay: LC-MS of proteins co-immunoprecipitated with DUX4-CTD (Table 1) and western validation
Type: binding, human
Parameters: key to 4. mL1dL2 + Dox + IFNG / 4. + IFNG mix / 4. longCTD + Dox + IFNG / 3. + IFNg + Dox longCTD / 3. + Dox longCTD / 3. + IFNG longCTD: peptide-spectrum matches (PSMs) per protein
Conditions: for 4. longCTD + Dox + IFNG: LC-MS counts of the listed protein co-immunoprecipitated with DUX4-CTD bait longCTD, experiment 4, Dox + IFNG; for 3. + Dox longCTD / 3. + IFNg + Dox longCTD: bait longCTD; for 3. + Dox longCTD: experiment 3, Dox only; for 3. + IFNg + Dox longCTD: experiment 3, IFNg + Dox; for SUM of PSMS: sum over all samples
Method in brief: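 FLAG-tagged DUX4-CTD expressed in doxycycline-induced MB135 myoblasts, some also IFNG-treated; nuclear lysates in pH 7.4 NP-40 IP buffer were pre-cleared, then anti-FLAG immunoprecipitated 3 h at 4 °C. For LC-MS, FLAG-peptide elution, in-gel trypsin digest, Orbitrap analysis; proteins with ≥2 PSMs in both experiments categorised and ranked by total PSMs.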

Row | Molecule | 4. longCTD + Dox + IFNG | 3. + Dox longCTD | 3. + IFNg + Dox longCTD | SUM of PSMS
1 | B1 | 13 | 1 | 1 | 36
2 | B2 | 4 | 24 | 68 | 112
3 | B3 | 16 | 14 | 39 | 69
4 | B4 | – | – | 9 | 30
5 | B5 | 11 | – | 1 | 29
6 | B6 | 9 | 9 | 21 | 46
7 | B7 | 6 | 1 | – | 7
